Among the data in patent publication US20230360747A1 are Kd values, retold here.

pKd: −log10 of the molar value.

The target in this assay is SARS-CoV-2 RBD (40592-VO8H, Sino Biological), Alexa Fluor 647 labelled (SARS-CoV-2) (UniProt P0DTC2).

With “SARS-CoV-2 (2019-nCoV) spike antibody (40150-R007, Sino Biological)”, the pKd – broadly, the negative decadic logarithm of the Kd, by convention in mol/L – is 8.02.
